The record followed here is patent US20220411472A1 (FRED HUTCHINSON CANCER CENTER, published 2022).

Read-outs that look alike come from different tables or passages of the source.

Experiment [1] deals with Biotinylated Tir-10_v2 peptide, Biotin-Ahx-EHI-pY-DEVAAD.
Experiment [2] deals with Tir10 phosphotyrosyl peptide, FITC-Ahx-EHI-pY-DEVAAD.
Experiment [3] concerns the target Biotinylated Tir-10_v2 peptide, Biotin-Ahx-EHI-pY-DEVAAD. The source holds these as a separate data set.
Experiment [4] concerns the target T1, OX40 receptor on activated human CD8+ T-cells (human, UniProt P43489 29-277).
T1 construct: whole, on cells; also called CD134
T1 sequence (looked up): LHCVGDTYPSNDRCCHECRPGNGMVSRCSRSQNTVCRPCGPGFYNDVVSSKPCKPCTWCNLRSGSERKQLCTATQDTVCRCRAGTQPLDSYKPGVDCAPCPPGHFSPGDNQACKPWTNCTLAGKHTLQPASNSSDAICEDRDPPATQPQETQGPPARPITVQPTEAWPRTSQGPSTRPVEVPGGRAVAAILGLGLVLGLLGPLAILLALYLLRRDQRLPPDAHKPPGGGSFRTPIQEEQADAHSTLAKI
In words: flow cytometry, CD8+ T-cells 4 days after anti-CD3/anti-CD28 bead activation, 2 µg/mL construct, secondary anti-His iFluor647; axis APC: OX40; lower panel. A general note: A flow cytometer gives signals particle by particle.
Protocol: T-cell isolation, proliferation and activation assays. […] Cells were incubated for 30 min at 37° C. with cTRP24₆SS-scTrimer^OX40L (2 μg/mL) or cTRP24₆SS-scTrimer^4-1BBL (2 μg/mL) and subsequently stained at 4° C. using THE anti-His Ab (GenScript; #A00186).

In experiment [1], “Free SH2 domain of the human Nck2 adapter protein” displayed a maximum binding response of 10 RU and a response of 80 RU. Also, in experiment [2], the concentration giving a half-maximal response (EC50 (read off the curve)) (usually the midpoint of the concentration-response curve) is 400 nM. In experiment [3], this molecule displayed a maximum binding response of 125 RU.

B1: cTRP246SS-scTrimer^OX40L (6-repeat disulfide-stapled cTRP tetramer with a single chain trimer of OX40L on each subunit) (ligand)
chain: QVSHRYPRIQSIKVQFTEYKKEKGFILTSQKEDEIMKVQNNSVIINCDGFYLISLKGYFSQEVNISLHYQKDEEPLFQLKKVRSVNSLMVASLTYKDKVYLNVTTDNTSLDDFHVNGGELILIHQNPGEFCVLGGGGSQVSHRYPRIQSIKVQFTEYKKEKGFILTSQKEDEIMKVQNNSVIINCDGFYLISLKGYFSQEVNISLHYQKDEEPLFQLKKVRSVNSLMVASLTYKDKVYLNVTTDNTSLDDFHVNGGELILIHQNPGEFCVLGGGGSQVSHRYPRIQSIKVQFTEYKKEKGFILTSQKEDEIMKVQNNSVIINCDGFYLISLKGYFSQEVNISLHYQKDEEPLFQLKKVRSVNSLMVASLTYKDKVYLNVTTDNTSLDDFHVNGGELILIHQNPGEFCVLGGGGSGGGGSCEAIKAAAELGKAGISSEEILELLRAAHELGLDPEAIKAAAELGKAGISSEEILELLRAAHELGLDPEAIKAAAELGKAGISSEEILELLRAAHELGLDPEAIKAAAELGKAGISSEEILELLRAAHELGLDPEAIKAAAELGKAGISSEEILELLRAAHELGLDPECIKAAAELGKAGISSEEILELLRAAHELGLGGSHHHHHH
notes: also called cTRP246SS-scTrimer^OX4OL; cTRP246SS-scFv^OX40L
For the molecule B1, the binding result in experiment [4] is “binds”.
